Laboratory results taken from PMC6522346 (Science (New York, N.Y.), 2018).

B1: ExbB (natural protein)
chain: MGNNLMQTDLSVWGMYQHADIVVKCVMIGLILASVVTWAIFFSKSVEFFNQKRRLKREQQLLAEARSLNQANDIAADFGSKSLSLHLLNEAQNELELSEGSDDNEGIKERTSFRLERRVAAVGRQMGRGNGYLATIGAISPFVGLFGTVWGIMNSFIGIAQTQTTNLAVVAPGIAEALLATAIGLVAAIPAVVIYNVFARQIGGFKAMLGDVAAQVLLLQSRDLDLEASAAAHPVRVAQKLRAG
B2: CyoB (natural protein)
chain: MFGKLSLDAVPFHEPIVMVTIAGIILGGLALVGLITYFGKWTYLWKEWLTSVDHKRLGIMYIIVAIVMLLRGFADAIMMRSQQALASAGEAGFLPPHHYDQIFTAHGVIMIFFVAMPFVIGLMNLVVPLQIGARDVAFPFLNNLSFWFTVVGVILVNVSLGVGEFAQTGWLAYPPLSGIEYSPGVGVDYWIWSLQLSGIGTTLTGINFFVTILKMRAPGMTMFKMPVFTWASLCANVLIIASFPILTVTVALLTLDRYLGTHFFTNDMGGNMMMYINLIWAWGHPEVYILILPVFGVFSEIAATFSRKRLFGYTSLVWATVCITVLSFIVWLHHFFTMGAGANVNAFFGITTMIIAIPTGVKIFNWLFTMYQGRIVFHSAMLWTIGFIVTFSVGGMTGVLLAVPGADFVLHNSLFLIAHFHNVIIGGVVFGCFAGMTYWWPKAFGFKLNETWGKRAFWFWIIGFFVAFMPLYALGFMGMTRRLSQQIDPQFHTMLMIAASGAVLIALGILCLVIQMYVSIRDRDQNRDLTGDPWGGRTLEWATSSPPPFYNFAVVPHVHERDAFWEMKEKGEAYKKPDHYEEIHMPKNSGAGIVIAAFSTIFGFAMIWHIWWLAIVGFAGMIITWIVKSFDEDVDYYVPVAEIEKLENQHFDEITKAGLKNGN
B3: MdtB (natural protein)
chain: MQVLPPSSTGGPSRLFIMRPVATTLLMVAILLAGIIGYRALPVSALPEVDYPTIQVVTLYPGASPDVMTSAVTAPLERQFGQMSGLKQMSSQSSGGASVITLQFQLTLPLDVAEQEVQAAINAATNLLPSDLPNPPVYSKVNPADPPIMTLAVTSTAMPMTQVEDMVETRVAQKISQISGVGLVTLSGGQRPAVRVKLNAQAIAALGLTSETVRTAITGANVNSAKGSLDGPSRAVTLSANDQMQSAEEYRQLIIAYQNGAPIRLGDVATVEQGAENSWLGAWANKEQAIVMNVQRQPGANIISTADSIRQMLPQLTESLPKSVKVTVLSDRTTNIRASVDDTQFELMMAIALVVMIIYLFLRNIPATIIPGVAVPLSLIGTFAVMVFLDFSINNLTLMALTIATGFVVDDAIVVIENISRYIEKGEKPLAAALKGAGEIGFTIISLTFSLIAVLIPLLFMGDIVGRLFREFAITLAVAILISAVVSLTLTPMMCARMLSQESLRKQNRFSRASEKMFDRIIAAYGRGLAKVLNHPWLTLSVALSTLLLSVLLWVFIPKGFFPVQDNGIIQGTLQAPQSSSFANMAQRQRQVADVILQDPAVQSLTSFVGVDGTNPSLNSARLQINLKPLDERDDRVQKVIARLQTAVDKVPGVDLFLQPTQDLTIDTQVSRTQYQFTLQATSLDALSTWVPQLMEKLQQLPQLSDVSSDWQDKGLVAYVNVDRDSASRLGISMADVDNALYNAFGQRLISTIYTQANQYRVVLEHNTENTPGLAALDTIRLTSSDGGVVPLSSIAKIEQRFAPLSINHLDQFPVTTISFNVPDNYSLGDAVQAIMDTEKTLNLPVDITTQFQGSTLAFQSALGSTVWLIVAAVVAMYIVLGILYESFIHPITILSTLPTAGVGALLALLIAGSELDVIAIIGIILLIGIVKKNAIMMIDFALAAEREQGMSPREAIYQACLLRFRPILMTTLAALLGALPLMLSTGVGAELRRPLGIGMVGGLIVSQVLTLFTTPVIYLLFDRLALWTKSRFARHEEEA
B4: adenine nucleotide translocase 1 (natural protein)
chain: MSDQALSFLKDFLAGGVAAAISKTAVAPIERVKLLLQVQHASKQISAEKQYKGIIDCVVRIPKEQGFLSFWRGNLANVIRYFPTQALNFAFKDKYKQIFLGGVDRHKQFWRYFAGNLASGGAAGATSLCFVYPLDFARTRLAADVGKGAAQREFTGLGNCITKIFKSDGLRGLYQGFNVSVQGIIIYRAAYFGVYDTAKGMLPDPKNVHIIVSWMIAQTVTAVAGLVSYPFDTVRRRMMMQSGRKGADIMYTGTVDCWRKIAKDEGPKAFFKGAWSNVLRGMGGAFVLVLYDEIKKFV

Assays:
Assay in all cases: native MS
complex IV = target: complex IV
[1] = target: complex III (Bos taurus (endogenous in bovine mitochondria)) (UniProt P00157)
[2] = target: Anchor Cell Fusion Failure protein 1
native MS = target: the molecule itself

| Molecule | stoichiometry N (native MS) | also measured |
| --- | --- | --- |
| complex IV |  | stoichiometry N (complex IV): 2 |
| complex III (from UniProt P00157;P00129) |  | stoichiometry N [1]: 2 |
| Anchor Cell Fusion Failure protein 1 (natural protein) |  | stoichiometry N [2]: 2 |
| B1 | 5 |  |
| B2 | 2 |  |
| B3 | 2 |  |
| B4 | 2 |  |
